Measured values: patent US20130109581A1, “POSITIVELY CHARGED SPECIES AS BINDING REAGENTS IN THE SEPARATION OF PROTEIN AGGREGATES FROM MONOMERS” (priority 2009, published 2013)
Several values for one entry are separate records, joined by “and”; a condition that tells them apart may be missing. Equal values may be shown once.

How the values were obtained:
PrP^Sc = PrP^Sc (Mesocricetus auratus, UniProt P04273)
Abeta 1-42 globulomer [1] = target: T1, Abeta 1-42 globulomer (Homo sapiens, UniProt P05067); assay: Globulomer capture assay in CSF (Example 6); format: binding
T1 construct: beta amyloid (1-42) was monomerized with incubation in hexafluoroisopropanol
Method: (§1) A series of new potential aggregate-specific binding reagents were designed as shown below and conjugated onto magnetic Dynal M270 beads as described in Example 2. Typically 7-12 nmol of ligand (each candidate aggregate-specific binding reagent) was coated onto 1 mg of beads.
(§2) Aliquots of the beads (typically 3 ul) were added to wells of a 96 well plate, followed by sample (with or without Abeta 1-42 globulomer (an Abeta42 oligomer model) spiked in 80:20 CSF:TBSTT, typically 125 ul). The plate was sealed and incubated for 1 hour at 37° C. with shaking. The plate was washed with aqueous solutions of detergent (typically polyethylene glycol sorbitan monolaurate and n-tetradecyl-N,N-dimethyl-3-ammonio-1-propanesulfonate) to remove ubound material and the residual buffer removed. A denaturing solution (typically 0.1-0.15 N NaOH) was added to each well and the plate heated to 80° C. for 30 min with shaking. After cooling the plate to room temperature, a neutralizing buffer (typically 0.12-0.18 M NaH2PO3 in 0.4% TWEEN20,) was added and the plate was shaken briefly at room temperature. The bead eluate was analyzed using either an Aβ42-specific ELISA or the MSD® 96-Well MULTI-SPOT® Human/Rodent [4G8] Abeta Triplex Ultra-Sensitive Assay from Meso Scale Discovery (Gaithersburg, Md.). For the Aβ42-specific assay, the samples were eluted from the beads and a detection antibody (4G8 HRP) was added to a plate bearing the Aβ42-specific antibody 12F4. The plate was incubated for 1 hour, washed, the substrate was added (SuperSignal West Femto Maximum Sensitivity Substrate from Thermo Fisher, Rockville, Md.), and the luminescence was measured. The MSD plate assay was performed in a similar fashion, according to the manufacturer's protocol.
(§3) In this experiment the preferred number of charges within a given scaffold was identified. An Ala/Lys peptide framework was utilized, where the inclusion of each Lys residue increases the peptides' net charge by +1. Six hexapeptides with increasing charge (+1→+6), AAAKAA, AAKKAA, AAKKKA, AKKKKA, AKKKKK, and KKKKKK, were prepared and conjugated on the beads. The ability of these beads to capture Abeta 1-42 globulomer spiked at 1 ng/mL into CSF was tested, and the result is shown in FIG. 25. The globulomer capture level (“42 1 ng/ml” or the closed bars) was compared to the background signal of Abeta 1-42 detected in the unspiked CSF (“42 0 ng/ml”) and the background signal of Abeta 1-40 detected in unspiked CSF (“40 0 ng/ml”) or CSF spiked with AB42 oligomers “40 1 ng/ml”. The charge density, as conjugated to the magnetic beads, of each reagent evaluated in this experiment is shown below in Table 8.

Abeta 1-42 globulomer [2] = target: T1, Abeta 1-42 globulomer; assay: Globulomer capture assay in CSF (Example 6); format: binding; conditions: 4 ng/mL globulomer spiked; FIG. 29
Abeta 42 globulomer = Abeta 42 globulomer (Homo sapiens, UniProt P05067); assay: NMPA with detergent washing after PSR1 pulldown: globulomer detection; format: binding
normal CSF Aβ42 = target: T2, normal CSF Aβ42 (Homo sapiens, UniProt P05067); assay: NMPA with detergent washing: background from unspiked CSF, Abeta42; format: binding; conditions: CSF; PSR1 beads treated with detergent post capture
T2 construct: reduced the detection of normal CSF Aβ42 to the background levels; from tissue; host or cells: pooled normal cerebrospinal fluid
Method: Second, two neutral detergents, polyethylene glycol sorbitan monolaurate (available as TWEEN 20 from Sigma-Aldrich, St. Louis, Mo.) and n-tetradecyl-N,N-dimethyl-3-ammonio-1-propanesulfonate (available as ZWITTERGENT 3-14 from EMI) Chemicals, Gibbstown, N.J.) were used to treat the globulomer-spiked CSF samples that had been contacted with PSR1 beads. For each assay, a mixture of 30 μl of PSR1 beads (coated at about 7-12 nmol PSR1 ligand/mg DYNAL beads, which were used in this example and in the following examples unless otherwise stated) and 70 μl of 1×TBSTT was immediately pipetted into each well on the pulldown plate. The liquid was removed on a magnetic separator. Fifty micro liters of 5×TBSTT was added to each well. The beads were suspended by briefly shaking at 750 rpm. Next […] of TBSTT or CSF sample without globulomer was added to each well. The pulldown plate was sealed and incubated at 37° C. for 1 hour with shaking at 500 rpm. After incubation, the beads were washed 8 times with TBST on the plate washer. After the plate wash, residual TBST buffer was removed from the beads on the magnetic separator. The beads were then incubated with 100 μl of either TBS, 1% Tween20 or 1% Zwittergent 3-14 for 30 minutes at room temperature at 750 rpm, (followed by an additional 8 washes with TBST on the plate washer. After removing residual TBST on the magnetic separator, 20 μl of denaturing solution, typically 0.1-0.15 N NaOH, was added to the beads. The plate was covered with an aluminum foil plate sealer and incubated at 80° C. for 30 minutes with shaking at 750 rpm. After incubation, the plate was cooled to room temperature and twenty micro liters of neutralizing solution, typically 0.12-0.18 M NaH2PO4+0.4% Tween20) was added into each well and the plate was incubated at room temperature for 5 minutes with shaking at 750 rpm. […] MSD Abeta Triplex Assay was preformed according to the manufacturer's instructions.
A summary of the assay results and calculated signal/noise is shown below in Table 17.

[3] = target: T3, Aβ40 aggregates in AD CSF (Homo sapiens, UniProt P05067); assay: Discrimination between AD and normal CSF; format: binding; conditions: AD CSF; detergent wash; data not shown
T3 construct: from tissue; host or cells: pooled cerebrospinal fluid (normal or AD)
Method: The Ab42 aggregates were prepared as previously described: fibrils were prepared per Stine et al (JBC 2003, 278, p11612), globulomers were prepared per Barghorn et al (J Neurology 2005 95 p834), ADDLs were prepared per Lambert et al (PNAS 1998, 95 p6448), and ASPDs were prepared per Noguchi et al (JBC 2009 284 p32895). Normal CSF was pooled from clinically characterized non-demented patient CSF samples. AD CSF was pooled from clinically-characterized AD patient samples. Alzheimer's Disease Brain Homogenate (ADBH) was prepared by sonication of clinically diagnosed AD patient brain samples in 0.2M.sucrose (1:10 w/v).
For the capture assay (Misfolded Protein Assay), aliquots of the beads (30 ul) were added to wells of a 96 well plate, followed by 125 ul of sample in 80:20 CSF:TBSTT. The plate was sealed and incubated for 1 h at 37 C with shaking. The plate was washed with TBST and the residual buffer removed. A denaturing solution (0.1 N NaOH) was added to each well and the plate heated to 80 C. for 30 min with shaking. After cooling the plate to RT, a neutralizing buffer (0.12 M NaH2PO3-0.4% TW20,) was added and the plate shaken briefly at RT. The assay was analyzed using the triplex Mesoscale Discovery ELISA kit for Aβ. The Aβ in the samples eluted from the beads were detected per the manufacturer's protocol.
For discriminating between AD and normal CSF, pooled normal CSF or pooled Alzheimer's Disease patient CSF, were assayed per the protocol described above.

Abeta 1-40 monomer = target: T4, Abeta 1-40 monomer (Homo sapiens, UniProt P05067); assay: Globulomer capture assay in CSF (Example 6): Abeta 1-40 noise; format: binding; conditions: Abeta 1-40 signal (noise), CSF samples
T4 construct: Abeta 1-40 monomer capture level; from tissue; host or cells: cerebrospinal fluid (matrix of the assay)
Method: as §1, §2, §3

[4] = target: T5, oligomeric beta amyloid 1-42 (globulomer) (Homo sapiens, UniProt P05067); assay: Misfolded Protein Assay: capture of globulomer spiked into CSF (Example 2); format: binding; conditions: globulomer-spiked CSF vs normal CSF; reagent on Dynal M270 beads
T5 construct: beta amyloid (1-42) was monomerized with incubation in hexafluoroisopropanol
Method: To assess the ability of these reagents to capture protein aggregates, the previously described Misfolded Protein Assay or MPA (Lau et al., 2007, PNAS, 104: 11551) was used (FIG. 3). In this assay, the capture reagent of interest is attached to beads which are incubated with a sample of interest containing a mixture of normal monomeric and aggregated proteins to allow for capture and then washed to remove unbound material. After this enrichment step, an elution buffer is used to dissociate the captured material from the beads as well as to denature any aggregates. The eluted material is then applied to a sandwich ELISA that is specific for the protein of interest. Strong aggregate-binding reagents acting as effective capture reagents show a high signal from the sample containing a mixture of monomers and aggregates, but not from the control sample, which contains only physiologic levels of monomeric protein.
Beads displaying carboxylic acids were treated with EDC and BMPH to create maleimide-displaying beads, to which thiolated peptides (or other thiolated organic molecules) were added through a Michael addition reaction. Dynal M270 magnetized beads (30 mg/mL bead) displaying carboxylic acids were vortexed and placed into a 15 ml falcon tube. The tube was placed into a magnet, and the supernatant removed. The beads were washed 2 times with 0.1 M MES buffer, pH 5, and then the washing buffer was removed. The coupling solution (33 mM BMPH, 130 mM EDC in MES buffer) was added, and the tube was rocked for 30 minutes at room temperature. After washing in 1×MES, 1× Tris, pH 7.5, the beads were quenched with Tris buffer (50 mM Tris buffer, pH 7.5) for 15 minutes. The beads were then washed 2 times in phosphate buffer and added to 5 mM thiolated ligand in degassed phosphate. The beads were rotated for 21 hours, then washed in 0.1 M phosphate buffer, pH 7, 1×PBS, and stored.
To prepare the globulomer, beta amyloid (1-42) was monomerized with incubation in hexafluoroisopropanol. The hexafluoroisopropanol was removed by vacuum centrifugation. DMSO, PBS, and 2% SDS were then added to the sample. The sample was vortexed and sonicated and then incubated at 37° C. After 6 hours, the sample was diluted with water, vortexed, and incubated at 37° C. for an additional 19 hours. The sample was ultracentrifuged at 135000×g for 1 hour at 4° C., and the supernatant retained. The globulomers were spiked into CSF for the assay.
Aliquots of beads conjugated to various reagents were added to wells of a 96-well plate. Globulomer-spiked CSF in a Tris buffer was added to each well, and the plates were incubated for 1 hour at 37° C. with shaking. For the negative control, normal CSF was used, which is considered to contain only monomers of beta amyloid. The beads were washed with TBST wash buffer, and bound materials were eluted with a denaturing solution (typically 0.1-0.15 N NaOH). A reconditioning buffer was added to the eluate prior to beta amyloid detection via a beta amyloid (1-42) specific sandwich ELISA.
In order to determine the amount of ligand loading, amine quanitation was used. Aliquots of beads were placed in a magnet, and the supernatant removed. 80% phenol in ethanol, 0.2 mM KCN in pyridine/water, and 6% ninhydrin in ethanol was added to each tube. The aliquots were vortexed and heated for 7 minutes at 100° C. After cooling to room temperature, 60% ethanol was added. The tubes were placed in a magnet, and the absorbance of the supernatant at 570 nm was determined. The loading of the beads was determined according to Beer's law, using the extinction coefficient of 15000 M-1 cm-1.
Beads (3 ul or 15 ul) were added to samples containing 0.5 ng/mL globulomer spiked into CSF. […] For PSR1, this limit was ˜5 nmol ligand/mg bead for binding preferentially to globulomer. […]

tau aggregates = format: binding, human
Aβ(1-42) aggregates = target: T6, Aβ(1-42) aggregates (Homo sapiens, UniProt P05067); format: binding
T6 construct: For Aβ(1-42), 10 nL of 10% brain homogenate was added to each well; from tissue; host or cells: Alzheimer's disease patient brain homogenate

PrP^Sc, sequence (P04273 23-231 limits assumed): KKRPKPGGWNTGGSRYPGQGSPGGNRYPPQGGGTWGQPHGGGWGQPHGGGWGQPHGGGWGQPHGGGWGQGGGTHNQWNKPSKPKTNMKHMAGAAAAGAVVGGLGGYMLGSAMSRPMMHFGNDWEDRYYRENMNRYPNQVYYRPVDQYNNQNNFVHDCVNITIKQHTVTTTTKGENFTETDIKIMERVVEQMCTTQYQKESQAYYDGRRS

Nab-Nab-Nab-Nab-Nab-Nab [++++++]
PrP^Sc capture signal (PrP^Sc): Signal was observed with the 100 or 300 ng/mL spike levels

FKFKKK
globulomer capture (Abeta 1-42 globulomer [1]; Abeta42 globulomer spiked into CSF, reagents on beads): captured globulomers specifically
globulomer capture (Abeta 1-42 globulomer [2]): improved globulomer capture relative to nonaromatic residues

AKFKKK
globulomer capture (Abeta 1-42 globulomer [2]): improved globulomer capture relative to nonaromatic residues

n-Hexadecyl-N,N-dimethyl-3-ammonio-1-propanesulfonate [ZW3-16]
signal/noise of globulomer detection (Abeta 42 globulomer): improved the signal/noise ratio for Abeta 42 globulomer detection more significantly
S/N Abeta 42 globulomer-spiked/unspiked (Abeta 42 globulomer; 0.5 ng/mL vs 0 ng/mL globulomer): 10.9
S/N Abeta 42 globulomer-spiked/Abeta 40 (Abeta 42 globulomer; Abeta 42 RLU at 0.5 ng/mL over average Abeta 40 RLU): 3.7
Abeta 42 RLU, 0.5 ng/mL Abeta 42 globulomer, Average (Abeta 42 globulomer; CSF, PSR1 beads treated with detergent post capture): 730.7 RLU
Abeta 42 RLU, 0 ng/mL Abeta 42 globulomer, Average (normal CSF Aβ42): 67.0 RLU
Abeta 40 aggregates capture S/N [3]: improved Abeta 40 aggregates capture S/N even more significantly in AD CSF

KKKKKK
40, 1 ng/ml average reading (Abeta 1-40 monomer): 197 RLUs
42:40 (signal:noise ratio) (Abeta 1-42 globulomer [1]; 1 ng/ml average reading, ratio of 42 to 40): 3.3
42, 1 ng/ml average reading (Abeta 1-42 globulomer [1]; Abeta 1-42 globulomer spiked at 1 ng/mL into CSF): 658 RLUs
capture of oligomers (relative light units from the Abeta ELISA) [4]: significant capture

KKKWKW
capture of oligomers (relative light units from the Abeta ELISA) [4]: increased capture efficiency relative to the corresponding peptides with aliphatic hydrophobic residues or no hydrophobic residues

Nab-Nab-Nab-Nab-Nab-Nab-Nab [+++++++]
total Tau signal, AD vs normal brain homogenate (tau aggregates): higher signals in the AD samples relative to the normal brain homogenates
limit of detection for Aβ(1-42) capture (Aβ(1-42) aggregates): 1.6 mL/assay and 2.5 mL/assay

HHHHHH
capture of oligomers (relative light units from the Abeta ELISA) [4]: little enrichment of the oligomeric species

DDDDDD
capture of oligomers (relative light units from the Abeta ELISA) [4]: little enrichment of the oligomeric species
